Test results as given in a protein production outcome set (Wang et al. 2014).

Assay: label from the status in PepcDB records

Sequence | protein production
MNTYKKIFYFSTILFFYSGFSYAQNINLLLRKGNTCYRKGQYKNAAPYYDQVLKTDPENIQALYKSGVCNLFRYSKEQALINFEKVLQKDSSYDKYLYYWLGRANQLNFNFDQADFFYTAFQQKTSKNKIQYKEADRYKYQLKCARNFVANPANYKIQNLGAAVNSSFSDHSPVVSYTDTLLFFTSRRVTNTEAKEEHDGEPFEDIFYSYRNSTGEWSKPELFHLNTSGHDATIQLFDNDTKIFIYSYLHDGDILLAHKNAGTWSTPVPVKEINSADFESDAFMTADGKTLYYATNHFKKNGDLDICFITKKDDNTWSKPQTLSSLINTDEDEDAPYISADGKTMYFSSRGHTSMGGYDIFKSELDSVTGQWQKPVNLGYPVNTPDEDLYFCLSAKTKRAFMSSYRTGGFGEKDIYEIIPVKNIQLLGSVMKGDTSTPFPNVTMQYIPMAGAMKGAQKTQVNTLADGTYTTELLSDNAYLVYISQGKDTLLKDTLVLPLNEFDHYVYKQLYILNIHDTAAVKDSVIHKVTDTIKTIAAAEIAKTVYFESNRADLNAEAKTELNQLGIYLDTHKEANVYISGHADALGSAAINNALSQKRAQAAAVYLKAKGISAARIKVESFGSEKPVETNATVEGRAKNRRVQIVVK | failed
MSVDPACPQSLPCFEASDCKESSPMPVICGPEENYPSLQMSSAEMPHTETVSPLPSSMDLLIQDSPDSSTSPKGKQPTSAENSVAKKEDKVPVKKQKTRTVFSSTQLCVLNDRFQRQKYLSLQQMQELSNILNLSYKQVKTWFQNQRMKSKRWQKNNWPKNSNGVTQKASAPTYPSLYSSYHQGCLVNPTGNLPMWSNQTWNNSTWSNQTQNIQSWSNHSWNTQTWCTQSWNNQAWNSPFYNCGEESLQSCMHFQPNSPASDLEAALEAAGEGLNVIQQTTRYFSTPQTMDLFLNYSMNMQPEDV | not failed
MSLTEEFVNKEDALKNYNAKEFRTPDGYTSDMILTTVKELNGKPTLHILLIKRSLTNAEGKPNMEGGKWAVPGGFVDENESAEQAAERELEEETSLTDIPLIPFGVFDKPGRDPRGWIISRAFYAIVPPEALEKRAAGDDAAEIGLFPMTEALELPLAFDHLDMLKKAFSAITEEFLLTEGHHHHHH | not failed
MKMIETSLASASAALRDRVDEILAAATREDGCAPLSESFLNGLRRADDGHVHSCVMDSHDQVVGVAARDGDSAEVVVDPAFRRQGYGSFLIRHVVSQGVKNVWAHGDGAGAKAVAKALQLEQTRQLLVMAVEGDRLVESAQLQVPSGFRVLALNEAYESIPDIEQQWLRVNNEAFEWHPEQGGWDSARLAQARDTQWFRESDVLFLIDTAKRTVAGFHWTKRHGDLAEGADGEVYVVGLGSAYRRRGLGDLLIRMGLHHLEYEHARRVILYVEGDNESARRAYDALGFHVVESHVTYSPQSSS | failed
MTFSSKLKSFCSRYFSSHEKDKYKALMKQKLLNPLSSSSPNYDEMIQENFKPHWIIGIDPNLSGALAVLKFDDKGSCSAQVNPY | failed
MKNKIILGCLAAAACEILFGLSFIFTKSITAQASGLALISWRFVTAFFFVNLYLLTKRQKVVINGRNIKPLIRIAILNPIIYFICETIGIRMTTASESGAFLACIPVVALIMSSLILKEWPSRWQVVGVATTLIGIIIAVFAAGGSTNFSLVGYFILGLAVVSYALYCVDVEKASQFTSFEITYFMLASGCLTFGLFALSHSFLAGNLKELLTLPWSNPKFAITILYQGLGCSVIGYILSNFAIATIGVNRTASFIGISTIISILAAVVFLGEPFSQLQILAGILVVLGVYVANKN | failed
MKIRDLLKARRGPLFSFEFFPPKDPEGEEALFRTLEELKAFRPAFVSITYGAMGSTRERSVAWAQRIQSLGLNPLAHLTVAGQSRKEVAEVLHRFVESGVENLLALRGDPPRGERVFRPHPEGFRYAAELVALIRERYGDRVSVGGAAYPEGHPESESLEADLRHFKAKVEAGLDFAITQLFFNNAHYFGFLERARRAGIGIPILPGIMPVTSYRQLRRFTEVCGASIPGPLLAKLERHQDDPKAVLEIGVEHAVRQVAELLEAGVEGVHFYTLNKSPATRMVLERLGLRPASGQP | not failed
MLIVGLNGSPKKDGNTAFLVREGLAAAAAAGAETALIHIADAMADQKIPYCTQCSNPCQGACSRHNRLGEAFDLLRRADGLLLGSPVYFGSVSAQLKAFWDKSRILRKEKALLNVVGAGVTVGGARFGGQETTMKALFDMMLVQGMILVGDGHTEADCGHQGSCGQAPASSDEFAIRRVRLAGRRLAEVAAATMTLRRHRA | failed
MPQFFKRTSKIQAIIALRSIAIAIQLLLILFVNLGLAYELPWTPLVSVISLEVLFTFGSYLYYSRNHLSEKKASQKAILVQICADIIFLSLLLFFSGGATNAFVSLLLIPIAIAAVTLTPLLLTVVAFLAIASYSILLWSLPMSVMHGNMQGHFIGMGINFLFSALVVAIVVGKMARSINQQELAIAAYRENLLKQEQVTSLGVASAQVTHQLATPIATVQLLADELSEDFPDNEIVLDMQSQLTRCRDSLSEFRAMVFDIKEQVIKAINCQDLFDEITDNVRVNNPEVSLQLQKNSDEHAKDVTIDADAALLPAILNLINNAIRASKANNSNALSLTCQTIENNWQFTIRDYGKGFTLKKLNELGVKPVNSDQGFGMAVFLSHASLERLGGKLALTNHQEGGALVTLSLPISSLTSGNDYA | failed
MSDTVLTGLLDTVWQQFGRGTKDRHHPARHPTLATIGTDGPDLRTLVLRAASHAEATLEFHTDAASPKVAHIRRDARVAIHIWIPKASLQVRAKAIAKILPGDPNLFAQLPEAARMNYQGPVPGTPLPAEPDATPNRFTRLICHLSEIDVLHLTTPHQRAVYTAPDWRGIWVSP | not failed
MSQFQEVRPVAQALYPTHPSTKDALEEARLLLPGGTHHDFMRALMGYHNTLVKVMEEQC | not failed
MTIAVLGATGMVGSRVITEAGARGHRVLALSRKPASEDPNVTLIAADANDPSAVREALAGVASNRAADAVVLTVRTHPVDQEFLIGATRTVLDIAAQLGIRVLVVGGAGALRSPDDHDLLVADNPTYVPAEWKTTAAAGIAQLRACQAHADADWVYLSPPALLEPGERTGRYRRGTDTLLTSADGRSWISAEDLAVAVVDELETPGRERLITVAHRDEPPSA | failed
MSNWPYPRIVAHRGGGKLAPENTLAAIDVGAKYGHKMIEFDAKLSKDGEIFLLHDDNLERTSNGWGVAGELNWQDLLRVDAGSWYSKAFKGEPLPLLSQVAERCREHGMMANIEIKPTTGTGPLTGKMVALAARQLWAGMTPPLLSSFEIDALEAAQQAAPELPRGLLLDEWRDDWRELTARLGCVSIHLNHKLLDKARVMQLKDAGLRILVYTVNKPQHAAELLRWGVDCICTDAIDVIGPNFTAQ | not failed
MRNTILFGVSMILLANLCFGIMSAFVKITADYFSPMENVFYRSITMTLLLLLIYPFKPYRLKSYKQGGFKKLAFRVVVGGLAMLAFFYNIEKISLATATAFSQCAPIYTVLLSPLLLKEKLKRSTLISACIGIVGVVLISDPSVENVGPVEIFMGILSGIFVSLAYITLRDLREYYDKQAVILAFAFGMSLLGLVGMFIDIPFLSTGIHVPRKEDILWISLIGISGTLGQYFLTYAYMNAPAGIIAPIEYTRIVWGLLFGLYLGDTFLDLKSSLGVALILCSGLLIALPALLKELKKI | failed
MKWARPSMHSSAQRKLIMTRILSIIGVSLCIAMLSPVLQAANLKTLDVAALPGDRIELKLAFDAPVPAPRGYTTAQPARIALDLPGVTSQLETKSRELGTGNARSVVVVQAQDRTRVIINLTTLAPYSSRVDGNNLFVVIGQGAAAAQASQPTTAMGAQRVAVPPPAPASARPFIPAGVKAIRNVDFQRGELGEGNVVIDLSNPSIAPDIQEQGGKIRVDFAKTQLPEPLRVRLDVKDFATPVQFVSASATGDKASILIEPSGAFDYSAFQTENKLTISVRPLTNEDLDRRAADKPVYTGEKLSLNFQDIDVRSVLQLIADFTNLNLVASDTVQGGITLRLQNVPWDQALDLVLKTKGLDKRKVGSVLLVAPADEIAARERQELESLKQIAELAPLRRELLQVNYAKAADIAKLFQSVTSAESKAEERGSITVDDRTNNIIAYQTQDRLDELRRIVSQLDIPVRQVMIEARIVEANVDYNKQLGVRWGGSTNTSRNGKWTTYGLDDNGDEGGNTNANLTSNIPFVDLGAADATTGIGLGFVTNNTLLDLELSAMEKTGNGEIVSQPKVVTSDKETAKILKGTEIPYQESSSSGATTVSFKEASLSLEVTPQITPDNRIIMEVKVTKDEPDYLNAVLGVPPIKKNEVNAKVLISDGETIVIGGVFSNTQSKVVDKVPFLGDVPYLGRLFRRDVVSESKSELLVFLTPRIMNNQAISVSR | failed
MQYATLELNNAFKVLFSLRQVQAAEMVIAPGDREGGPDNRHRGADQWLFVVDGAGEAIVDGHTQALQAGSLIAIERGQAHEIRNTGDTPLKTVNFYHPPAYDAQGEPLPAGEG | not failed
ALYNVDAGHRAVIFDRFRGVQDIVVGEGTHFLIPWVQKPIIFDCRSRPRNVPVITGSKDLQNVNITLRILFRPVASQLPRIFTSI | failed
MTEPNNPHRPDEAGVSGWPSEAGRDPYGQPSNPYQMPAPYSSGLPVAENHRRPYVDFGLAIKLFFKNYAVFRGRASRSEYWWTVLFNFIIAVAIQALMPILQGVGLMSAITSNSTTEFSAMSTSGVIFTMLPLAWLLAIIIPCLALTVRRLHDVNHSGWWVMAPTLCGIVSAIMMILAFVSAAANDGKPSMALLTIGIVLFVAIFVVNIILLIFVISDSHPEAWKKYDKEPLPVTE | failed
MPSLPDRRRWLLDGARDTVPMMVGAAPFGLIFGTLAIAAGLSPAATAAMSLLVFAGSSQFIAVSLVSAGAALPVIWLTTFVVNLRHALYSATLLPYARPWPLAWRWPLAFWLTDETFAVVEHRFRSLGAEGGQWYWLGSSLSMYLNWQLWTLAGVALGRSVPGLDRLGLDFAMVATFAAIVAPQLKKRPTLAAALAAGAVALLARGLPYKLDLMLAALAGVAAGMMVERGQKREAA | failed
MSQFPNRAALWLNKLAPDAPLMSGLCPSVQVTDGQINGESVRFIAVVPDANNHYPRAAGGEVGLLEGWTLAKVVNETIAADADRPVKRPIVAVIDVPSQAYGRREEAFGIHQALAGAAGAYAKARLAGHPVIGLIVGKAMSGAFLAHGYQANRLIAFNDSGVLVHAMGKASAARITLRTVEALEKLAATIPPMAYDVSNYATLGLLSALLDISNPDAPDEGDLSLVSRTLRDAIADARTDTSLKCRLGAENRRSSQLVRDRMRASW | failed
MATVRLVTRKRAGRSSRPSAASLPARSAVERNSSGPLLSKSRYVRIMAARRSSSLRQQQGRLEWGGRSRPVELATRSFEKQGDATAFFKAMLNRHQPGERVSDEDGLDVAALLERHTEYVAKVGCGVSHFQVMMTEHGTQCFRIIRTDGSGTDFSYPHCISQRPPSRKQEVAQAFRRAVRFDLYKARDNLFATHSGSDGLVSCAVTGERIAQDEGHMDHRPPMTFEVIVTTFLCGRGLSLDNVPLTTGKDDQVSPEVTDNALSEAFRAYHAGIARLDFVRNTVNLAQASRHRLKDGRITLTG | failed
MIKQSPKYITPLNEQNVNKDNANLLVCPFAGASNSAFNSWRSTDISGLNCQLVNYSGHGCRFKEPAFNDIGLLANELITIIKKFYPPRHNSLLLCGHSMGAQVAFETAIQLEKNGWELSGLILSGCQAPHIQARRLLSDLNDDDFIQQLIAIGGCDAELIKQPQLLKQFMPLLRADFLATERYFFQKSTKRLFHTPVLLMYGSHDSEADKNEVEAWQDWIDKHCTINCIAGDHFYPITRPNTFCRFIIDFYHQ | failed
